We go through one substance from patent US20100119588A1.

Bounds are passed on as bounds.

This test addresses hemagglutinin H1 on influenza virus A/Puerto Rico/8/34 strain (H1N1) (influenza virus A/Puerto Rico/8/34 (H1N1)) (UniProt P03452). Nature of the test: cell-based or functional assay.

For the substance C18-s2(1-4)P4A (C18-ARLA peptide amide), the IC50(µM), plaque assay, infection of MDCK cells is more than 100 µM.
